These results are taken from article PMC4121272, “Two β-Galactosidases from the Human Isolate Bifidobacterium breve DSM 20213: Molecular Cloning and Expression, Biochemical Characterization and Synthesis of Galacto-Oligosaccharides” (PLoS ONE, 2014).

Substrate in the data set: O=[N+]([O-])c1ccccc1O[C@@H]1O[C@H](CO)[C@H](O)[C@H](O)[C@H]1O
Put plainly: purified protein. Type of data set: biochemical, Bifidobacterium breve. The following applies: 50 mM sodium phosphate pH 6.5, 30°C.

B1: β-gal II (Bifidobacterium breve DSM 20213 = JCM 1192) (protein)
chain: MNTTDDQLKNGDPIVSPSMPTTAWLTDPRVYAVHRLDAHSDHACWSHAPVNGEGSDLGQSLDGEWRVRVETAPTGRFPDGTSDVSPLFAASDFDDSSFSRVQVPSHLETAGLLAPQYVNVQYPWDGHEDPEAPAIPEHGHVAVYRREFDADGEVAQAVREGHPVTLTFQGAATAIYVWLNGSFVGYAEDSFTPSEFDVTDAIKMEGNVLAVACYEYSSASWLEDQDFWRLHGLFRSVELNARPSAHVADIHADTDWDPATSRGSLSLDILVDGTPNAATADLVLRDKNGTTVWHTSTEATGTLHAEAEIDGASPWSAERPDLYTLSIALLDADGRILEIARTRIGFRRVSIEDGILKLNGKRLVFRGVNRHEFDCRRGRAITEEDMLWDIRFMKRHNINAVRTSHYPNQSRWYELCDEYGIYLIDETNLETHGSWNSPGDIPVGTSVPGDDEAWLGACIDRLDSMIMRDRNHPSVLIWSLGNESYAGEVLKAMSAHAHRLDPGRPVHYEGVNWNHAYDEISDFESRMYAKPAEIRDWLEHGDERGEASKPFVSCEYMHAMGNSCGGLSEFIDLERYERYSGGFIWDYIDQGLVQRLPDGCERLSVGGDWGDRPTDYEFVGNGIVFADRTPSPKAQEVKQLYSPVKLTPDGHGVTIENRNLFASTDGYVFAARLLEDGREIWHADYRFDVAAGDTQHHDIAFPDIDSDEGTREVTYEVDLLLAEATAWAPAGYELAFGQLTDTLNPEGDITGNNQDDGRATVTLSRWNAGIRRDDEEILMSRTQGGIVSWKRNGREMVIRRPEIVTFRPLTDNDRGNRSGYDRAAWFAAGRYAVVTDTSITQSDDGGLTAAYRYELADPDHTPVSVTYRVTPGMRMQLTVEYPGNAAGAASLPAFGIEWELPGEYQHLRYYGTGPEETYRDRKQGGKLGIWDTTSEASTAPYLMVQETGSHEDVRWLEATDIQGHGLRVTQRGDRHFTASLLPWNTYTIEAARRHEDLPAPRHNYLRLLAAQMGVGGDDSWGAPVHTAYQLPADRPLTLDVNLELI
notes: full length, C-terminal His6 tag kept (pET-21a), E. coli T7 Express with GroEL/GroES, IMAC; calculated 116,594 Da; homodimer 211 kDa; GH2; N-terminus from primer MNTTDDQ, C-terminus before tag DVNLELI
Usually Km stands for the substrate concentration at which the rate is half of its maximum. A word on the Vmax: it is the rate approached at saturating substrate. By kcat is commonly meant the number of substrate molecules converted per active site and unit of time at saturation. What is called kcat/Km is the second-order rate constant that governs catalysis at low substrate concentration. With B1, the Michaelis constant (Km) turned out to be 0.67 ± 0.07 mM, the Vmax is 188 µmol/min/mg, the kcat came to 364 ± 6 s⁻¹ and the kcat/Km was 543000 ± 65000 M⁻¹ s⁻¹.

B2: β-gal I (Bifidobacterium breve DSM 20213 = JCM 1192) (protein)
chain: MQGKAKTIMTNLQSAQQFSQAWLTDPRVFAVNRLAAHSSHKFYDHAPQCGEAMDLKQSLDGQWRVQMVDLADLADNELAEAAFAQPGYDAAGFSPIEVPSALETKGFLNHQYVNQQYPWSGHESPVAPDVPKHNHVALYRHEFSLEPKAAAVLEANKTAADDTAKRRVTLTFQGAATAIAVWLNGAFIGYAEDSFTPSEFDVTDVLRDGVNTLAVACFEFSSASWLEDQDFWRLHGIFRSVELEAQPLVHVNDLRVLADYDHTTGEGSLDVVALVRNAGTAAAVAATVLDAAGNTVWHSKLTAGADAETLTVKANVGKVNPWSAEEPTLYTLQVVATDAAGQVIEAALQRIGFRHFAIEDGLMKLNGKRIVFKGVDRHEFDARTGRTIAEADMIEDIHSFKRLNINAVRTSHYPNETRWYELCDEYGIYVLDETNLETHGSWTDPGDVFQPARAIPGSKDEWRAACVDRTASMVRRDYNHPSVVIWSLGNEAFGGDVFYSMRDFVHENDPFRPVHYEGTFNDPEFSAATDIMSRMYAKPDEIVKLYLGEDGKKPYISCEYSHSMGNSTGGLHLYTELERYPLYQGGFIWDYVDQALWQDCGDGTERLAYGGDFEDRPNDYEFSGDGVMFADRTPSPKAQEVKQLYANVKLVPDESGVTITNDNLFVSTASSLFTARVLVDGVERWHANYRFDVPAGETVREPIAFPKVTDLVALSGSAEVTYEVDQRLAEATDWAPAGYELTFGQYVAAVSFDDGAADAVVAGDAEVAADGFNAGIHTDFGEVLLSKTQGGMVSFKRDGREMVIRRPNLTTFRALTDNDRGNGSGFERAQWMAAGRYARVTDTSVEETADGKGLKATYSYELADAKHTPVTVHYEVDAALRVHLTVEYPGEADAATLPAFGLEWILPKQYDRLRFYGLGPEETYADRLHGAKLGVFSRTAAEDCAPYLLPQETGNHEQVRWAEITDEYGHGMRVTAAGGTRFATSLLPYSSLMLEDALHQNELPKPRHTFLRLLAAQMGVGGDDTWGAPVHDEFQVPADQPLKLDVTLELI
notes: full length, C-terminal His6 tag kept (pET-21a), E. coli T7 Express with GroEL/GroES, IMAC; calculated 116,127 Da; homodimer 220 kDa; GH2; N-terminus from primer MQGKAKT, C-terminus before tag DVTLELI
For the protein B2, the Km is 1.3 ± 0.1 mM, the Vmax was 486 µmol/min/mg, the kcat was determined as 939 ± 7 s⁻¹ and the kcat/Km worked out at 722000 ± 66000 M⁻¹ s⁻¹.
